From patent US20230218739A1 (SICHUAN CLOVER BIOPHARMACEUTICALS, published 2023) come the findings set out here.

This experiment has as its target Rabies G-Trimer (CTN-1 Strain) (ectodomain of rabies CTN-1 strain G protein fused in frame to Trimer-Tag) (Rabies virus CTN-1 strain).

B1: NGFR-Fc (nerve growth factor receptor NGFR (p75) fused to Fc) (Fc fusion)
chain: KEACPTGLYTHSGECCKACNLGEGVAQPCGANQTVCEPCLDSVTFSDVVSATEPCKPCTECVGLQSMSAPCVEADDAVCRCAYGYYQDETTGRCEACRVCEAGSGLVFSCQDKQNTVCEECPDGTYSDEANHVDPCLPCTVCEDTERQLRECTRWADAECEEIPGRWITRSTPPEGSDSTAPSTQEPEAPPEQDLIASTVAGVVTTVMGSSQPVVTRGTTDN
In the case of B1, the Kd was 2.92 nM, the koff was 2.39e-05 s⁻¹ and the kon was found to be 8170 M⁻¹ s⁻¹.

For orientation: Kd means a measure of binding affinity in units of concentration. Low readings indicate higher affinity, high ones lower affinity. Broadly, the koff is the first-order rate constant of dissociation. Read a low koff as a long-lived complex. What is called kon is the rate constant with which the complex forms. A lower kon goes with slow association.
